# Laboratory results from PMC5028202 (ACS chemical biology, 2015).
# Target: the molecule itself
# Experiment: NMR structure
protein,measurement,value
"XCL1 CC5 (A36C A49C), disulfide-locked XCL1dim variant (natural protein, UniProt P47992 22-114, looked up) VGSEVSDKRTCVSLTTQRLPVSRIKTYTITEGSLRCVIFITKRGLKVCCDPQATWVRDVVRSMDRKSNTRNNMIQTKPTGTQQSTNTAVTLTG",stoichiometry N,2
